One block for each binder: values may come before it.
B1: Rpn8 (natural protein, S. cerevisiae, UniProt Q08723 1-338, looked up)
chain: MSLQHEKVTIAPLVLLSALDHYERTQTKENKRCVGVILGDANSSTIRVTNSFALPFEEDEKNSDVWFLDHNYIENMNEMCKKINAKEKLIGWYHSGPKLRASDLKINELFKKYTQNNPLLLIVDVKQQGVGLPTDAYVAIEQVKDDGTSTEKTFLHLPCTIEAEEAEEIGVEHLLRDVRDQAAGGLSIRLTNQLKSLKGLQSKLKDVVEYLDKVINKELPINHTILGKLQDVFNLLPNLGTPDDDEIDVENHDRINISNNLQKALTVKTNDELMVIYISNLVRSIIAFDDLIENKIQNKKIQEQRVKDKQSKVSDDSESESGDKEATAPLIQRKNKKN
notes: Rpn8, subunit of the 19S proteasome lid, S. cerevisiae; source: endogenous, S. cerevisiae strain RJD2909; in lysate, then co-purified with Rpn11^H12 as the 19S lid (Ni-NTA, Sephacryl S-400 gel filtration)
B2: Rpn5 (natural protein, S. cerevisiae, UniProt Q12250 1-445, looked up)
chain: MSRDAPIKADKDYSQILKEEFPKIDSLAQNDCNSALDQLLVLEKKTRQASDLASSKEVLAKIVDLLASRNKWDDLNEQLTLLSKKHGQLKLSIQYMIQKVMEYLKSSKSLDLNTRISVIETIRVVTENKIFVEVERARVTKDLVEIKKEEGKIDEAADILCELQVETYGSMEMSEKIQFILEQMELSILKGDYSQATVLSRKILKKTFKNPKYESLKLEYYNLLVKISLHKREYLEVAQYLQEIYQTDAIKSDEAKWKPVLSHIVYFLVLSPYGNLQNDLIHKIQNDNNLKKLESQESLVKLFTTNELMRWPIVQKTYEPVLNEDDLAFGGEANKHHWEDLQKRVIEHNLRVISEYYSRITLLRLNELLDLTESQTETYISDLVNQGIIYAKVNRPAKIVNFEKPKNSSQLLNEWSHNVDELLEHIETIGHLITKEEIMHGLQAK
notes: Rpn5, subunit of the 19S proteasome lid, S. cerevisiae; source: endogenous, S. cerevisiae strain RJD2909; in lysate, then co-purified with Rpn11^H12 as the 19S lid (Ni-NTA, Sephacryl S-400 gel filtration)
B4: Rpn11^H12 (natural protein, S. cerevisiae, UniProt P43588 1-306, looked up)
chain: MERLQRLMMNSKVGSADTGRDDTKETVYISSIALLKMLKHGRAGVPMEVMGLMLGEFVDDYTVNVVDVFAMPQSGTGVSVEAVDDVFQAKMMDMLKQTGRDQMVVGWYHSHPGFGCWLSSVDVNTQKSFEQLNSRAVAVVVDPIQSVKGKVVIDAFRLIDTGALINNLEPRQTTSNTGLLNKANIQALIHGLNRHYYSLNIDYHKTAKETKMLMNLHKEQWQSGLKMYDYEEKEESNLAATKSMVKIAEQYSKRIEEEKELTEEELKTRYVGRQDPKKHLSETADETLENNIVSVLTAGVNSVAIK
notes: Rpn11, subunit of the 19S proteasome lid, S. cerevisiae; tagging cassette of plasmid pT2H12 integrated directly before the stop codon of RPN11; also called modified Rpn11; source: S. cerevisiae strain RJD2909 (tag integrated at the chromosomal RPN11 locus); in lysate, then purified as the 19S lid (Ni-NTA, Sephacryl S-400 gel filtration); not shown: His12, C-terminal, kept

How the values were obtained:
Rpn6 = biological target: T1, Rpn6 (S. cerevisiae, UniProt Q12377 1-434); assay: native MS; 185-kDa subcomplex present in the solution of the purified lid, 1 M ammonium acetate; 34+ charge state isolated, MS/MS with argon at 130 V; details: both partners purified
T1 construct: Rpn6, subunit of the 19S proteasome lid, S. cerevisiae; Present in substoichiometric amounts: a part of the purified lid complexes lacks Rpn6; also called Rnp6; source: endogenous, S. cerevisiae strain RJD2909; in lysate, then co-purified with Rpn11^H12 as the 19S lid (Ni-NTA, Sephacryl S-400 gel filtration)
T1 sequence (looked up): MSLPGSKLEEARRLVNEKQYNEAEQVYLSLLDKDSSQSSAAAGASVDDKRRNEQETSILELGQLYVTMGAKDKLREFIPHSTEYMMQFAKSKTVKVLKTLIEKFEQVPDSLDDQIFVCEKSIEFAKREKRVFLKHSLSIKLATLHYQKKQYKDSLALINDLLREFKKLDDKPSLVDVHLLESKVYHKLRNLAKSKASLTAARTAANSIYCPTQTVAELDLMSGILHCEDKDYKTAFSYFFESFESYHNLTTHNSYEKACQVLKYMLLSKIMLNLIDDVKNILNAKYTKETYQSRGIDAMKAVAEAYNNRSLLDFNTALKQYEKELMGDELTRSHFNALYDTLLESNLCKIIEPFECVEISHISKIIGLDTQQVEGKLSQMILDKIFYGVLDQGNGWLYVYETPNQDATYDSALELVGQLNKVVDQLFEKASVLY

Rpn9 = biological target: T2, Rpn9 (S. cerevisiae, UniProt Q04062 1-393); assay: as above; details: both partners purified
T2 construct: Rpn9, subunit of the 19S proteasome lid, S. cerevisiae; source: endogenous, S. cerevisiae strain RJD2909; in lysate, then co-purified with Rpn11^H12 as the 19S lid (Ni-NTA, Sephacryl S-400 gel filtration)
T2 sequence (looked up): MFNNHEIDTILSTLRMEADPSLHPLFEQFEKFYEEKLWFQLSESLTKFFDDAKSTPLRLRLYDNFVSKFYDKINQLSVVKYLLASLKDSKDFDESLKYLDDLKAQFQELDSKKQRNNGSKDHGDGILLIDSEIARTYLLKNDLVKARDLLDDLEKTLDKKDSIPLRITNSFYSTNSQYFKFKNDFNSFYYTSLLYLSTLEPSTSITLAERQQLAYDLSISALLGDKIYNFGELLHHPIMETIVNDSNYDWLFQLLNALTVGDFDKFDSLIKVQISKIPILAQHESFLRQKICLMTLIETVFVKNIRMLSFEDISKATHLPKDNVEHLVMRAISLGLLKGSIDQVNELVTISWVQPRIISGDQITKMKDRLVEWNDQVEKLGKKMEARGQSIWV

Rpn5 [1] = biological target: B2; assay: cross-linking; purified lid 4.8 uM, BS3 at a ratio of 1:50, 2 h on ice, 200 mM NaCl, 50 mM HEPES pH 7.5; bands A-F of a Bis-Tris 4-12% denaturing gel digested with trypsin and identified by MALDI-TOF/TOF MS and MS/MS; details: both partners purified
Rpn3 [2] = biological target: T3, Rpn3 (S. cerevisiae, UniProt P40016 17-523); assay: as above; details: both partners purified
T3 construct: Rpn3, subunit of the 19S proteasome lid, S. cerevisiae; from the measured mass the first 16 residues are truncated; source: endogenous, S. cerevisiae strain RJD2909; in lysate, then co-purified with Rpn11^H12 as the 19S lid (Ni-NTA, Sephacryl S-400 gel filtration)
T3 sequence (looked up): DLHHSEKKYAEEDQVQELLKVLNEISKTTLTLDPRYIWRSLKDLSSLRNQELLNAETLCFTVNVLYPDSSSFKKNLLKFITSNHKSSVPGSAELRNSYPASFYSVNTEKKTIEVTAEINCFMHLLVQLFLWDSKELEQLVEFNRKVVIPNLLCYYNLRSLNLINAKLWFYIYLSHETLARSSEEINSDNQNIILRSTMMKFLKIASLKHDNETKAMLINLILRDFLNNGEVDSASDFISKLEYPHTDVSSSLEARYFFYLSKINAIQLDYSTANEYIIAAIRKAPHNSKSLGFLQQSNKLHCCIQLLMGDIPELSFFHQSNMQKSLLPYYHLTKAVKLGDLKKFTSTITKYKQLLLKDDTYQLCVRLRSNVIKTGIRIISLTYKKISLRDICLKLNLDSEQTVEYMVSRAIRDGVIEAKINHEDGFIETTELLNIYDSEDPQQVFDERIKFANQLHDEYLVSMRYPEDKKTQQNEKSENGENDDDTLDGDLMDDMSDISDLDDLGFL

Rpn11^H12 = biological target: B4; assay: affinity purification with mass spectrometry; Rpn11^H12 held on Ni-NTA from yeast lysate, gel filtration; subunits identified by MALDI-TOF/TOF peptide mapping and database search; details: partners not purified
Rpn7 [3] = biological target: T4, Rpn7 (S. cerevisiae, UniProt Q06103 1-429); assay: cross-linking; purified lid 4.8 uM, BS3 at a ratio of 1:50, 2 h on ice, 200 mM NaCl, 50 mM HEPES pH 7.5; bands A-F of a Bis-Tris 4-12% denaturing gel digested with trypsin and identified by MALDI-TOF/TOF MS and MS/MS; details: both partners purified
T4 construct: Rpn7, subunit of the 19S proteasome lid, S. cerevisiae; source: endogenous, S. cerevisiae strain RJD2909; in lysate, then co-purified with Rpn11^H12 as the 19S lid (Ni-NTA, Sephacryl S-400 gel filtration)
T4 sequence (looked up): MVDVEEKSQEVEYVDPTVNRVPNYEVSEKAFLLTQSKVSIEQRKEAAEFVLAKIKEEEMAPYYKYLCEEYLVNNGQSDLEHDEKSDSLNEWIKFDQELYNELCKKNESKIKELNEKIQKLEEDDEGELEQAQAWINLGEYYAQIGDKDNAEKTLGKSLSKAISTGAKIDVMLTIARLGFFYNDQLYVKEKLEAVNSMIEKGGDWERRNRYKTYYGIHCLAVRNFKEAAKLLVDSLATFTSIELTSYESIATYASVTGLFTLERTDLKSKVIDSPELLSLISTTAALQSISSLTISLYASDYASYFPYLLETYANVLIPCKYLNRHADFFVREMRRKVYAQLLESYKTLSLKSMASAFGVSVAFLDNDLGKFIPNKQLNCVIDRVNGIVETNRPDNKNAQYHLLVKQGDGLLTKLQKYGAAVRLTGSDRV

Rpn7 [4] = biological target: T4, Rpn7; assay: affinity purification with mass spectrometry; Rpn11^H12 held on Ni-NTA from yeast lysate, gel filtration; subunits identified by MALDI-TOF/TOF peptide mapping and database search; details: partners not purified
Rpn8 = biological target: B1; assay: as above; details: partners not purified
Rpn3 [5] = biological target: T3, Rpn3; assay: native MS; intact endogenous 19S lid purified through Rpn11^H12, buffer exchanged into 1 M ammonium acetate, nano-electrospray on a high-mass Q-TOF; MS/MS of the 47+ charge state at 100 and 120 V; details: both partners purified
Rpn5 [6] = biological target: B2; assay: as above; details: both partners purified

Binder: B1
binding result (Rpn6): binds
binding result (Rpn9): binds
binding result (Rpn5 [1]): binds

Binder: B2
binding result (Rpn3 [2]): binds

binding result (Rpn11^H12): binds
binding result (Rpn3 [2]): binds
binding result (Rpn7 [3]): binds
B3: Sem1 (natural protein, S. cerevisiae, UniProt O94742 2-89, looked up)
chain: STDVAAAQAQSKIDLTKKKNEEINKKSLEEDDEFEDFPIDTWANGETIKSNAVTQTNIWEENWDDVEVDDDFTNELKAELDRYKRENQ
modifications: N-terminal amino group acetylated (initiator methionine removed)
notes: Sem1, subunit of the 19S proteasome lid, S. cerevisiae (10 kDa); the initiator methionine is removed; source: endogenous, S. cerevisiae strain RJD2909; in lysate, then co-purified with Rpn11^H12 as the 19S lid (Ni-NTA, Sephacryl S-400 gel filtration)

Binder: B4
binding result (Rpn7 [4]): binds
binding result (Rpn8): binds
binding result (Rpn3 [5]): binds
binding result (Rpn5 [6]): binds
